Where no end group is shown, it is not given here.
Legend:
[1] = target: mature plasmepsin 4 of Plasmodium berghei (PbPM4), auto-matured from semi-proPbPM4 (Plasmodium berghei ANKA); assay: enzyme inhibition kinetics (Ki of competitive inhibition); initial cleavage velocities of a chromogenic peptide substrate at varied inhibitor concentration, spectrophotometric; proPbPM4 pre-incubated in 100 mM sodium citrate pH 5.0, 37°C, 5 min; tight-binding or non-tight-binding competitive fit
[2] = target: human cathepsin D (human) (UniProt P07339); assay: enzyme inhibition kinetics (Ki of competitive inhibition); initial cleavage velocities of a chromogenic peptide substrate at varied inhibitor concentration; hcatD pre-incubated in 200 mM sodium formate pH 3.7, 37°C, 5 min
[3] = target: plasmepsin 4 from Plasmodium ovalae (P. ovalae); assay: enzyme inhibition kinetics (Ki of competitive inhibition); initial cleavage velocities of a chromogenic peptide substrate at varied inhibitor concentration; plasmepsins pre-incubated in 100 mM sodium formate pH 4.5, 37°C, 5 min to convert zymogen to mature enzyme
[4] = target: plasmepsin 4 from Plasmodium vivax (Plasmodium vivax); assay: as above
[5] = target: plasmepsin 4 from Plasmodium malariae (Plasmodium malariae); assay: as above

Ki [1] [nM] | Binder | further results
379 | KPFSLLQF (not fully specified (residue 5); printed as KPFSLΨLQF; also: Ψ pseudopeptide bond between L5 and L6) [compound 2 (KPFSLΨLQF), peptidomimetic inhibitor designed for PfPM1] | –
3900 | KPYEFRQF (not fully specified (residue 5); printed as KPYEFΨRQF; also: Ψ pseudo-peptide bond between F5 and R6) [compound 1 (KPYEFΨRQF), peptidomimetic inhibitor designed for PbPM4] | Ki [2]: 41000 nM; Ki [3]: 1900 nM; Ki [4]: 426 nM; Ki [5]: 445 nM
0.12 | KPLEFYRV (not fully specified (residue 5); printed as KPLEFΨYRV; also: Ψ pseudopeptide bond between F5 and Y6) [compound 6 (KPLEFΨYRV), peptidomimetic inhibitor designed for PoPM4] | –
502 | KPVEFRQT (not fully specified (residue 5); printed as KPVEFΨRQT; also: Ψ pseudopeptide bond between F5 and R6) [compound 4 (KPVEFΨRQT), peptidomimetic inhibitor designed for PfPM4] | –
8100 | KPFELAWT (not fully specified (residue 5); printed as KPFELΨAWT; also: Ψ pseudopeptide bond between L5 and A6) [compound 7 (KPFELΨAWT), peptidomimetic inhibitor designed for PmPM4] | –
1.4 | KPLEFFRV (not fully specified (residue 5); printed as KPLEFΨFRV; also: Ψ pseudopeptide bond between F5 and F6) [compound 5 (KPLEFΨFRV), peptidomimetic inhibitor designed for PvPM4] | –

— PMC4624963, “Enzymatic Characterization of Recombinant Food Vacuole Plasmepsin 4 from the Rodent Malaria Parasite Plasmodium berghei” (PLoS ONE, 2015)
